Positions count from the first letter of the chain named.
Key:
Conditions in all cases: both partners purified
[1] = biological target: T1, octa-histidine tagged Pf41 D1D2 (residues 21-368) (Plasmodium falciparum, UniProt Q8I1Y0 21-368); assay: BLI; Octet RED96e; octa-histidine tagged Pf41 loaded on NTA sensors; untagged Pf12 wildtype, mutant or single domain 31-1000 nM; PBS pH 7.4, 0.1% BSA, 0.05% TWEEN-20, 25°C; read-out relative maximum response against wildtype
T1 construct: Pf41, Plasmodium falciparum 6-cysteine protein, residues K21-S368; TEV-cleavable tag left on; loaded on NTA sensors; also called tagged wildtype Pf41; source: Spodoptera frugiperda 21 cells, secreted into growth media, purified as tagged protein (Ni-IMAC, SEC); not shown: His8, N-terminal, kept
T1 sequence: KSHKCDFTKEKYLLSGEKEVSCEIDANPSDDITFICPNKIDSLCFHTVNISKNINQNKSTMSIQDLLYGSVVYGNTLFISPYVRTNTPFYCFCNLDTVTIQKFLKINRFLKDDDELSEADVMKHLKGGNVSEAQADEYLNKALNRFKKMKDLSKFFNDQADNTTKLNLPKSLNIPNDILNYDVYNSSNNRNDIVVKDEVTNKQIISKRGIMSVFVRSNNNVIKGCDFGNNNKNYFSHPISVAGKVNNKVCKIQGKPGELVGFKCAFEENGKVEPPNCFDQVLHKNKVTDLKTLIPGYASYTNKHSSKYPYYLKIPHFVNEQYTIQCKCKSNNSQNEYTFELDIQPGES

[2] = biological target: T2, Pf41 D1D2 (residues 21-368), untagged (Plasmodium falciparum, UniProt Q8I1Y0 21-368); assay: AUC; sedimentation velocity, 20°C, 50 000 rpm, absorbance at 280 nm, c(s) analysis with SEDFIT
T2 construct: Pf41, Plasmodium falciparum 6-cysteine protein, residues K21-S368 (D1 with the inserted-domain-like region ID, and D2); lacks the signal peptide and ten C-terminal residues; After TEV cleavage three residues, GAS, remain at the N-terminus as cloning artefacts; N-glycosylation sites kept; treated with PNGase F before crystallisation; also called Pf41 wildtype; source: Spodoptera frugiperda 21 …
T2 sequence (looked up): T1 sequence

[3] = biological target: T3, Pf12 labelled with DyLight 488 (Plasmodium falciparum (sequence as 3D7), DyLight 488 (N-hydroxysuccinimide ester), about 2.4 dye per protein); assay: FRET or BRET; Pf12-DL488 and Pf41-DL594 mixed 1:1 with five-fold excess of nanobody; FRET signal relative to the no-nanobody control
T3 construct: Pf12, Plasmodium falciparum 6-cysteine protein; The FRET methods say only 'Pf12'; also called Pf12-DL488
T3 chain: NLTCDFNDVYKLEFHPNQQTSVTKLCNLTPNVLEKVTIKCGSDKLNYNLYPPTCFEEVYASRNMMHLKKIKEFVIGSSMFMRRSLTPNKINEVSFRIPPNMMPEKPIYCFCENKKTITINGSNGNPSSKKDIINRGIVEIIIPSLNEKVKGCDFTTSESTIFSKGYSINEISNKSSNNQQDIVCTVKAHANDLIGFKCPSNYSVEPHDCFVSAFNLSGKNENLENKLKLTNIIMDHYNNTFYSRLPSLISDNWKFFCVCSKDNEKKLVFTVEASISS

[4] = biological target: T4, Pf12 D1D2 (residues 28-304), untagged (Plasmodium falciparum, UniProt C6KSX0); assay: BLI; Octet RED96e; nanobodies loaded on NTA sensors; untagged Pf12 or Pf41 (6-200 nM) or their domains in solution; PBS pH 7.4, 0.1% BSA, 0.05% TWEEN-20, 25°C; global 1:1 fit
T4 construct: Pf12, Plasmodium falciparum 6-cysteine protein, residues N28-S304 (domains D1 and D2); lacks the signal peptide and the GPI-anchor site; After TEV cleavage three residues, GAS, remain at the N-terminus as cloning artefacts; N-glycosylation sites kept; treated with PNGase F before crystallisation; also called Pf12 wildtype; source: Spodoptera frugiperda 21 cells, secreted into growth media, …

[5] = biological target: T5, Pf41 D1D2 (residues 21-368), untagged (Plasmodium falciparum, UniProt Q8I1Y0); assay: as above
T5 construct: Pf41, Plasmodium falciparum 6-cysteine protein, residues K21-S368 (D1 with the inserted-domain-like region ID, and D2); lacks the signal peptide and ten C-terminal residues; After TEV cleavage three residues, GAS, remain at the N-terminus as cloning artefacts; N-glycosylation sites kept; treated with PNGase F before crystallisation; also called Pf41 wildtype; source: Spodoptera frugiperda 21 …

[6] = biological target: T6, Pf12 D2 (residues E174-S304) (Plasmodium falciparum, UniProt C6KSX0); assay: as above
T6 construct: Pf12, Plasmodium falciparum, C-terminal 6-cys domain D2, residues E174-S304; also called Pf12 D2 domain; source: Spodoptera frugiperda 21 cells, purified by the same protocol as Pf12 D1D2; not shown: His8, N-terminal, cleaved

[7] = biological target: T7, Pf41 D2 (residues I242-S368) (Plasmodium falciparum 3D7, UniProt Q8I1Y0); assay: as above
T7 construct: Pf41, Plasmodium falciparum, C-terminal 6-cys domain D2, residues I242-S368; also called Pf41 D2 domain; source: Spodoptera frugiperda 21 cells, purified by the same protocol as Pf41 D1D2; not shown: His8, N-terminal, cleaved

B1: Pf12 D1D2 (residues 28-304), untagged (domain or fragment, Plasmodium falciparum, UniProt C6KSX0 28-304, looked up)
chain: T3 chain
notes: Pf12, Plasmodium falciparum 6-cysteine protein, residues N28-S304 (domains D1 and D2); lacks the signal peptide and the GPI-anchor site; After TEV cleavage three residues, GAS, remain at the N-terminus as cloning artefacts; N-glycosylation sites kept; treated with PNGase F before crystallisation; also called Pf12 wildtype; source: Spodoptera frugiperda 21 cells, secreted into growth media, …
B1: binds [1]; binds [2].

B2: nanobody A3 (VHH)
VHH: QVQLQESGGGLVQAGGSLRLSCAASGRTFSNYAMGWFRQAPGKEREFVAAITWSGDSTYYGDSVKGRFTISRDNAKSTAYLQMNSLKPEDTAVYYCAADEAVVTTTLQWDYWGQGTQVTVSS
notes: alpaca, immunised with Pf12-Pf41 complex; Pf12-specific; source: E. coli WK6, periplasmic extract, purified (HisTrap, SEC)
In the case of B2, the “percent reduction of the Pf12-Pf41 FRET signal” value (“percent reduction” below) [3] is reported as about 90%, the binding result [4] is reported as “binds” and the binding result [5] is reported as “no binding”. B2: binds [6].

B3: nanobody A11 (VHH)
VHH: QVQLQESGGGLVQPGGSLRLSCAASGFTFDDYAIGWFRQAPGKEREGVSCIMSSDGSAYYADSVKGRFTISRDNAKNTVYLQMNSLRPEDTANYYCATDKIVCSTGFIVDYGMHYGGKGTQVTVSS
notes: as for B2
In the case of B3, the “percent reduction” value [3] is reported as about 90%, the binding result [4] is reported as “binds” and the binding result [5] is reported as “no binding”. B3: binds [6].

B4: nanobody H9 (VHH)
VHH: QVQLQESGGGLVQPGGSLRLSCAASGFTLDYYAIGWFRQAPGKEREGVSCIMSSDGSTYYADSVKGRFTISRDNAVNTVYLQMNGLKPEDTAVYYCATDKIVCGSGFIVDYGTDYRGKGTQVTVSS
notes: as for B2
For B4, the “percent reduction” value [3] was about 90%, the Kd [4] was under 0.01 nM and the binding result [5] was “no binding”.

B5: nanobody A6 (VHH)
VHH: QVQLQESGGGLVQPGGSLRLSCAASGGTIRSDGMGWFRQVPKKEREFVGMITYMGPVYTADSVEGRFAISRDNVKNTVYLQMNNLQPEDTAVYYCAVHVGGIYYYEGSYEYWGQGTQVTVSS
notes: alpaca, immunised with Pf12-Pf41 complex; Pf41-specific; source: E. coli WK6, periplasmic extract, purified (HisTrap, SEC)
B5: no binding [7]; binds [5].

B6: nanobody G11 (VHH)
VHH: B5 VHH with G33S, E64K, A68T, T90A, V99I, G100S, I102L, G107A, E110K
notes: as for B5
B6: no binding [7]; binds [5].

B7: nanobody G12 (VHH)
VHH: B5 VHH with G33S, I51L, E64K, E88D, G100S, I102V, G107D, E110R
notes: as for B5
B7: no binding [7]; binds [5].
